The values that follow come from the supplement of paper PMC6379048.

Broadly, the EC50 is the midpoint of the concentration-response curve. The low end stands for higher potency in that assay, the high end for lower potency in that assay.

Test in all cases: EC50 of free RNA motif oligo competing protein binding to immobilised probe
For one series, the target named is T1, TSNAX (UniProt Q99598).
T1 sequence: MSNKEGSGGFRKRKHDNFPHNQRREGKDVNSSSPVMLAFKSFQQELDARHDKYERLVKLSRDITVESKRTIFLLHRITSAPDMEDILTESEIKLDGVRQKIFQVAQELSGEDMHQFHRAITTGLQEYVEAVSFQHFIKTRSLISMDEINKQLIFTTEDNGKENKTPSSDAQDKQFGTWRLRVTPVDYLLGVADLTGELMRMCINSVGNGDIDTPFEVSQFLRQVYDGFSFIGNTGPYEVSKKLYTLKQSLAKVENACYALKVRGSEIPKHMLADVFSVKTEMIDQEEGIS
In short, it runs like this: (§1)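 Kd was calculated as EC50, taken from a four-parameter log-logistic fit, multiplied by a protein-dependent depletion factor. The assay used HEK293-FT lysate (2.5 mg protein/well) pre-incubated for 1 h at 4°C with free RNA oligos (0 nM to 30 μM), then incubated for 30 min at 4°C with the matching oligos bound through a 5′-amino-C6 linker to NHS-Sepharose beads. Bound proteins were measured by label-free LC-MS/MS and normalised to the control.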

The next series addresses HSP90AB2P (UniProt Q58FF8). The method, boiled down: as §1
A further series has as its target T2, NONO (UniProt Q15233).
T2 sequence: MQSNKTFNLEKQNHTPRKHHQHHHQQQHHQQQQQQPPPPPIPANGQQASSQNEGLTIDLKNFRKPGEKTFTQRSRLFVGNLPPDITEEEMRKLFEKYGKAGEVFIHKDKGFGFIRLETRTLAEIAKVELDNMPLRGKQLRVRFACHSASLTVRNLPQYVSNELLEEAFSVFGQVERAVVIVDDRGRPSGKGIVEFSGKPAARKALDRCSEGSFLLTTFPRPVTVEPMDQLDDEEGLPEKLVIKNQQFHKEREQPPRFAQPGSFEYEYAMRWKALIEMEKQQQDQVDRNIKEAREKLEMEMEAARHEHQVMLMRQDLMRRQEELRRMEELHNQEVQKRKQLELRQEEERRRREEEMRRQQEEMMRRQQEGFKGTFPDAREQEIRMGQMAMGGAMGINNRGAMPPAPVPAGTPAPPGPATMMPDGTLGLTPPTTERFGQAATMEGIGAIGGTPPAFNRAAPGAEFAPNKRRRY
In short, it runs like this: as §1

A further series concerns the target MRPL11 (UniProt Q9Y3B7). In short, it runs like this:
as §1

The next series concerns the target IGF2BP1 (UniProt Q9NZI8). The method, boiled down:
as §1

The target of a further series is T3, FASTKD2 (UniProt Q9NYY8).
T3 sequence: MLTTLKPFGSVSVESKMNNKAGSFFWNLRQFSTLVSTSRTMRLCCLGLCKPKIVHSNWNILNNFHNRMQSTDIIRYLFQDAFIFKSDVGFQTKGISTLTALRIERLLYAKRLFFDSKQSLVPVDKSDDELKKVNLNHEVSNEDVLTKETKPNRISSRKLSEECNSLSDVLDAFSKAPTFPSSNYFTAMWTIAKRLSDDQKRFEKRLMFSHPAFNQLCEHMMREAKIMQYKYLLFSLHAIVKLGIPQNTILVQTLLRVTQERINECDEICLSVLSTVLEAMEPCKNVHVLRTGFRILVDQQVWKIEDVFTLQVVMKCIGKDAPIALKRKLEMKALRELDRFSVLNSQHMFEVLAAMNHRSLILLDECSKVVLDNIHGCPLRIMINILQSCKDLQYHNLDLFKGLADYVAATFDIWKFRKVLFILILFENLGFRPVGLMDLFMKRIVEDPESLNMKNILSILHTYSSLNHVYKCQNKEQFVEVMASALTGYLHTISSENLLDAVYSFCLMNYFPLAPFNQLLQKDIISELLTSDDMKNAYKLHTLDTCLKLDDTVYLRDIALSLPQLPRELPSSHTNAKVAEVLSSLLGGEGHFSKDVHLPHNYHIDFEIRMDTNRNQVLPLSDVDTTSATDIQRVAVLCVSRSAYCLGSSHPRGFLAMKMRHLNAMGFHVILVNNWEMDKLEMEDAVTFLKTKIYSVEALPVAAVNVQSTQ
The method, boiled down: as §1

The next series deals with T4, PRPF3 (UniProt O43395).
T4 sequence: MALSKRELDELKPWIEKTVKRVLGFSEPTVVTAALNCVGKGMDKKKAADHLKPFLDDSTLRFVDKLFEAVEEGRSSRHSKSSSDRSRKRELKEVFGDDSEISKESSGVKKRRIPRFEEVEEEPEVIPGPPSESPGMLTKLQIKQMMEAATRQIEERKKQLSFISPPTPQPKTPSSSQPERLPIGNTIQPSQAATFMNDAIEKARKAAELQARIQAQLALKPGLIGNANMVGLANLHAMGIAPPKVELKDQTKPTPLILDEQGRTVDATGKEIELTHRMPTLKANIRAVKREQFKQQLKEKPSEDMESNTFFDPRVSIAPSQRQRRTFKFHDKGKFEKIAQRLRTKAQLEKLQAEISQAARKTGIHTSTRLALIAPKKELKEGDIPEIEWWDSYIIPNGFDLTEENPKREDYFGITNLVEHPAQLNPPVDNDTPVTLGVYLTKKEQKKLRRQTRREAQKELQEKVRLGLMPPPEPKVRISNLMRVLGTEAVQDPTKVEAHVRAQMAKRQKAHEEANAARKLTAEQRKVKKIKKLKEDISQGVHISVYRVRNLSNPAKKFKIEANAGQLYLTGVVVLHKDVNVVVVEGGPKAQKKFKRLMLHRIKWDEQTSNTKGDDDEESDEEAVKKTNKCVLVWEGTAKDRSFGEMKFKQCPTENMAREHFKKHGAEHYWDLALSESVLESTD
The method, boiled down: as §1

The target in the next series is MRPS25 (UniProt P82663). The method, boiled down: as §1

Sequence of HSP90AB2P (Q58FF8 whole entry): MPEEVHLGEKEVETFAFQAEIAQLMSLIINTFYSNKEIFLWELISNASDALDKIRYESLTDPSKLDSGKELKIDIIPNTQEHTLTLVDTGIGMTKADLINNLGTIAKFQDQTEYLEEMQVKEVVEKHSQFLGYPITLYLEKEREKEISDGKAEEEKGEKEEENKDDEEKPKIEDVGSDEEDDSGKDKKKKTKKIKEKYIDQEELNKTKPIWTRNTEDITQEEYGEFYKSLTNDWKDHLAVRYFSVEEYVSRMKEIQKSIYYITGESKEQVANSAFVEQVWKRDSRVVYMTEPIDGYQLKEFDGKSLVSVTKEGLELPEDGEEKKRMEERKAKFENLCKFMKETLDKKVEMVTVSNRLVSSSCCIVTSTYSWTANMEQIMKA
Sequence of IGF2BP1 (Q9NZI8 whole entry): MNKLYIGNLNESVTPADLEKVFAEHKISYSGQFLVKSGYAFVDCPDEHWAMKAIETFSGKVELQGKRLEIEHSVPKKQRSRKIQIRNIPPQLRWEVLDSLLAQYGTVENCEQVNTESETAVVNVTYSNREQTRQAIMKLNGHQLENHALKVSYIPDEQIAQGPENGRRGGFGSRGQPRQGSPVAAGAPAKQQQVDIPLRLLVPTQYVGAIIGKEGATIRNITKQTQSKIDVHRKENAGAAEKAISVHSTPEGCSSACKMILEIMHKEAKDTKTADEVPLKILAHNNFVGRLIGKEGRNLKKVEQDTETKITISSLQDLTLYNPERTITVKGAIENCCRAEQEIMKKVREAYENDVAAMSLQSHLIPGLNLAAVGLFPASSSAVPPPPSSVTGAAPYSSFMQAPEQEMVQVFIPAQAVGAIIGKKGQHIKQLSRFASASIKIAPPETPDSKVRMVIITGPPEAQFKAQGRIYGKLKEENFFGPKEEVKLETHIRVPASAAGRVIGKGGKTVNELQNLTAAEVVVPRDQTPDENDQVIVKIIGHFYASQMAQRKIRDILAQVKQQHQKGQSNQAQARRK

For the sequence AAUAAA, the EC50 in the series with TSNAX came out at 30.5 nM; with HSP90AB2P it was 129 nM; in the series with NONO, 0.302 nM.

For CUGUCCU, the EC50 with MRPL11 was 118 nM; in the series with IGF2BP1 it was 3.74 µM.

As for UAUUUAU, the results for the EC50 with FASTKD2, in the series with PRPF3 and in the series with MRPS25 were 7.86 µM, 7.13 µM and 17.4 nM, respectively.
